Data published in US20200048345A1 (INNATE PHARMA, published 2020).

Assays:
[1] = biological target: T1, Human NKp46 recombinant protein (human, UniProt O76036 22-258, limits assumed); test: SPR (Biacore T100), captured on Protein-A chip, recombinant human NKp46 6.25-400 nM, 1:1 kinetic model
T1 construct: Soluble analyte in SPR; also called recombinant human NKp46 proteins
Procedure: SPR measurements were performed on a Biacore T100 apparatus (Biacore GE Healthcare) at 25° C. In all Biacore experiments HBS-EP+ (Biacore GE Healthcare) and NaOH 10 mM served as running buffer and regeneration buffer respectively. Sensorgrams were analyzed with Biacore T100 Evaluation software. Protein-A was purchased from (GE Healthcare). Human NKp46 recombinant proteins were cloned, produced and purified at Innate Pharma.
Protein-A proteins were immobilized covalently to carboxyl groups in the dextran layer on a Sensor Chip CMS. The chip surface was activated with EDC/NHS (N-ethyl-N′-(3-dimethylaminopropyl) carbodiimidehydrochloride and N-hydroxysuccinimide (Biacore GE Healthcare)). Protein-A was diluted to 10 μg/ml in coupling buffer (10 mM acetate, pH 5.6) and injected until the appropriate immobilization level was reached (i.e. 2000 RU). Deactivation of the remaining activated groups was performed using 100 mM ethanolamine pH 8 (Biacore GE Healthcare).
Monovalent affinity study was conducted following a regular Capture-Kinetic protocol recommended by the manufacturer (Biacore GE Healthcare kinetic wizard). Seven serial dilutions of human NKp46 recombinant proteins, ranging from 6.25 to 400 nM were sequentially injected over the captured Bi-Specific antibodies and allowed to dissociate for 10 min before regeneration. The entire sensorgram sets were fitted using the 1:1 kinetic binding model.

human FcRn = biological target: T2, human FcRn (human, UniProt P55899 24-297; P61769 21-119, limits assumed); test: SPR, recombinant human FcRn immobilized on chip; Steady State
T2 construct: also called recombinant FcRn proteins
T2 sequence (P55899 24-297 limits assumed, chain 1 of 2): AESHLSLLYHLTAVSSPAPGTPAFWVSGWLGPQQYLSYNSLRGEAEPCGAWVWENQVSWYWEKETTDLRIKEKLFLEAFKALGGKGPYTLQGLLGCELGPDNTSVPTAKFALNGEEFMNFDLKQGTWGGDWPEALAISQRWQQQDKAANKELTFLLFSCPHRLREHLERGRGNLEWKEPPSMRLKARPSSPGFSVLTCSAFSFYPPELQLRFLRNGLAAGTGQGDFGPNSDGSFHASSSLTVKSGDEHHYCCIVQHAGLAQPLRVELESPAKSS
T2 sequence (P61769 21-119 limits assumed, chain 2 of 2): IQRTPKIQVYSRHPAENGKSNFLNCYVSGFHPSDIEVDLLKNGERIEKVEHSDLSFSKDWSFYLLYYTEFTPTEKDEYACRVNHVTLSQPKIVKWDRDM

T1 sequence (O76036 22-258 limits assumed): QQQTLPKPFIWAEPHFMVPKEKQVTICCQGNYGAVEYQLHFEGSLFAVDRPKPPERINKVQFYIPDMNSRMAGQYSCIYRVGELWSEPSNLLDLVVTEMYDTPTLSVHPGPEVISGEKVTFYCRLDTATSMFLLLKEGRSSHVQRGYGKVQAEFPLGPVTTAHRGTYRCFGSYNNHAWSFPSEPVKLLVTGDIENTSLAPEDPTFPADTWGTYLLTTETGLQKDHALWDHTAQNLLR

B1: CD19-F9A-NKp46-3 (bispecific antibody, human IgG1, kappa)
chain 1: not shown
chain 2: DIVMTQSPATLSVTPGDRVSLSCRASQSISDYLHWYQQKSHESPRLLIKYASQSISGIPSRFSGSGSGSDFTLSINSVEPEDVGVYYCQNGHSFPLTFGAGTKLELKASTKGPSVFPLAPSSKSTSGGTAALGCLVKDYFPEPVTVSWNSGALTSGVHTFPAVLQSSGLYSLSSVVTVPSSSLGTQTYICNVNHKPSNTKVDKRVEPKSCDKTH
chain 3: not shown
notes: Heterotrimer, monomeric Fc with tandem CH3, N297S, wild-type hinge cysteines
Kd [1]: 32 nM
koff [1]: 0.00669 s⁻¹
kon [1]: 207000 M⁻¹ s⁻¹
Kd (human FcRn): 858 nM
